Read-outs that look alike come from different tables or passages of the source.
How the values were obtained:
Experiment in all cases: cell-based or functional assay
[1] = molecular target: T1, Interferon type I receptors on HeLa cells (UniProt P17181 28-557; P48551 27-515, limits assumed)
T1 sequence (looked up) 1: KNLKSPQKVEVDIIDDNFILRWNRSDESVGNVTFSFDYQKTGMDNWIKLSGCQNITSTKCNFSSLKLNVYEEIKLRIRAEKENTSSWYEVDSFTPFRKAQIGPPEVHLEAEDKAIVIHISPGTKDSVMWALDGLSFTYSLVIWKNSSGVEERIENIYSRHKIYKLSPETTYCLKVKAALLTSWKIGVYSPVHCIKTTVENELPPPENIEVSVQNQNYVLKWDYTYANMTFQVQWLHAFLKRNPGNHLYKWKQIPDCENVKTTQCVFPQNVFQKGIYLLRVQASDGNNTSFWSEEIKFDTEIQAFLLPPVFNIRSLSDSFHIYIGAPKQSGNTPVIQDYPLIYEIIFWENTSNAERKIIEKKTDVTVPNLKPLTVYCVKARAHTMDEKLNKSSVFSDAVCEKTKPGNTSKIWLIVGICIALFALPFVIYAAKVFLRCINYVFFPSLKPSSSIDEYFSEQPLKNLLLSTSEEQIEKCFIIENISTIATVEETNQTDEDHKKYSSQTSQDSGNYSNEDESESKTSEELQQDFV
T1 sequence (looked up) 2: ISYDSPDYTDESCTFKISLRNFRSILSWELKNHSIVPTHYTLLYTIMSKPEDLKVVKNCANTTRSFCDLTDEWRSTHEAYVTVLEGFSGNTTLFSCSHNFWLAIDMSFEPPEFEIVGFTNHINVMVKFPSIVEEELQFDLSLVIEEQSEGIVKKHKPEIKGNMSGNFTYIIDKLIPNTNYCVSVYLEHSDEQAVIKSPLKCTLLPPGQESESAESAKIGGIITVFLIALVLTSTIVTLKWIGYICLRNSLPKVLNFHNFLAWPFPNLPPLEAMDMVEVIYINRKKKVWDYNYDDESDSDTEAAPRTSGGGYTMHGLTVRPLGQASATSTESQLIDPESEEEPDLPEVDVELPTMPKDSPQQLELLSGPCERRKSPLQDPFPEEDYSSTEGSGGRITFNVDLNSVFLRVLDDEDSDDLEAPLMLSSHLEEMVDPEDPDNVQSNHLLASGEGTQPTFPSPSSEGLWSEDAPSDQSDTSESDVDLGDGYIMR

[2] = molecular target: T1, Interferon type I receptors on HeLa …; remark: listed apart in the source
[3] = molecular target: T1, Interferon type I receptors on HeLa …; remark: listed apart in the source

| Binder | INF-β activity, culture medium of transfected CHO K1 cells [1] | specific activity relative to wt hINF-β [2] | INF-β activity, culture medium of transfected CHO K1 cells [3] |
| --- | --- | --- | --- |
| [Q48V, Q49N, Q51T]hINF-β (ligand, introduced N-linked glycosylation site at position 49, besides the natural site at N80 (expressed in CHO K1 cells)) MSYNLLGFLQRSSNFQCQKLLWQLNGRLEYCLKDRMNFDIPEEIKQLVNFTKEDAALTIYEMLQNIFAIFRQDSSSTGWNETIVENLLANVYHQINHLKTVLEEKLEKEDFTRGKLMSSLHLKRYYGRILHYLKAKEYSHCAWTIVRVEILRNFYFINRLTGYLRN | 65900 IU/ml |  |  |
| [Q49N+Q51T]hINF-β variant (ligand, introduced N-linked glycosylation site at position 49 (used only about 60%), besides the natural site at N80 (expressed in CHO K1 cells)) MSYNLLGFLQRSSNFQCQKLLWQLNGRLEYCLKDRMNFDIPEEIKQLQNFTKEDAALTIYEMLQNIFAIFRQDSSSTGWNETIVENLLANVYHQINHLKTVLEEKLEKEDFTRGKLMSSLHLKRYYGRILHYLKAKEYSHCAWTIVRVEILRNFYFINRLTGYLRN | 135000 IU/ml |  |  |
| [Q48F, Q49N, Q51T]hINF-β (ligand, introduced N-linked glycosylation site at position 49, besides the natural site at N80 (expressed in CHO K1 cells)) MSYNLLGFLQRSSNFQCQKLLWQLNGRLEYCLKDRMNFDIPEEIKQLFNFTKEDAALTIYEMLQNIFAIFRQDSSSTGWNETIVENLLANVYHQINHLKTVLEEKLEKEDFTRGKLMSSLHLKRYYGRILHYLKAKEYSHCAWTIVRVEILRNFYFINRLTGYLRN | 53100 IU/ml |  |  |
| [F111N+R113T]hINF-β variant (ligand, introduced N-linked glycosylation site at position 111 (used only about 50%), besides the natural site at N80 (expressed in CHO K1 cells)) MSYNLLGFLQRSSNFQCQKLLWQLNGRLEYCLKDRMNFDIPEEIKQLQQFQKEDAALTIYEMLQNIFAIFRQDSSSTGWNETIVENLLANVYHQINHLKTVLEEKLEKEDNTTGKLMSSLHLKRYYGRILHYLKAKEYSHCAWTIVRVEILRNFYFINRLTGYLRN |  | ~2 fold of wt hINF-β | 58600 IU/ml |
| [D110F, F111N, R113T]hINF-β (ligand, introduced N-linked glycosylation site at position 111, besides the natural site at N80 (expressed in CHO K1 cells)) MSYNLLGFLQRSSNFQCQKLLWQLNGRLEYCLKDRMNFDIPEEIKQLQQFQKEDAALTIYEMLQNIFAIFRQDSSSTGWNETIVENLLANVYHQINHLKTVLEEKLEKEFNTTGKLMSSLHLKRYYGRILHYLKAKEYSHCAWTIVRVEILRNFYFINRLTGYLRN |  |  | 50900 IU/ml |
| [Q48W, Q49N, Q51T]hINF-β (ligand, introduced N-linked glycosylation site at position 49, besides the natural site at N80 (expressed in CHO K1 cells)) MSYNLLGFLQRSSNFQCQKLLWQLNGRLEYCLKDRMNFDIPEEIKQLWNFTKEDAALTIYEMLQNIFAIFRQDSSSTGWNETIVENLLANVYHQINHLKTVLEEKLEKEDFTRGKLMSSLHLKRYYGRILHYLKAKEYSHCAWTIVRVEILRNFYFINRLTGYLRN | 45100 IU/ml |  |  |
| [D110V, F111N, R113T]hINF-β (ligand, introduced N-linked glycosylation site at position 111, besides the natural site at N80 (expressed in CHO K1 cells)) MSYNLLGFLQRSSNFQCQKLLWQLNGRLEYCLKDRMNFDIPEEIKQLQQFQKEDAALTIYEMLQNIFAIFRQDSSSTGWNETIVENLLANVYHQINHLKTVLEEKLEKEVNTTGKLMSSLHLKRYYGRILHYLKAKEYSHCAWTIVRVEILRNFYFINRLTGYLRN |  |  | 15100 IU/ml |
